Measured values reported in paper PMC10240976.

T1: LIR[Sp] peptide
T1 chain: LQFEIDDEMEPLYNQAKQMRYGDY

B1: GABARAP (purified, for ITC) F62W (protein)
chain: MKFVYKEEHPFEKRRSEGEKIRKKYPDRVPVIVEKAPKARIGDLDKKKYLVPSDLTVGQFYWLIRKRIHLRAEDALFFFVNNVIPPTSATMGQLYQEHHEEDFFLYIAYSDESVYG

Legend:
Assay in all cases: ITC
[1] = target: GABARAPL1 (purified, for ITC)
[2] = target: GABARAPL2 (purified, for ITC) (human)
[3] = target: GABARAP (purified, for ITC) (human)
LC3C (purified, for ITC) = target: LC3C (purified, for ITC)
LC3B (purified, for ITC) = target: LC3B (purified, for ITC)
LIR[Sp] peptide = target: T1, LIR[Sp] peptide; conditions: chain shown with the change

GABARAPL2 (purified, for ITC) (human), sequence (P60520 1-116): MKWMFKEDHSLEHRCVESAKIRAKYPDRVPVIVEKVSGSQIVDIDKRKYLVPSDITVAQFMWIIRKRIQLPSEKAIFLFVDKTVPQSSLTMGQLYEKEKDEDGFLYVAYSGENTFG

| Kd [1] [µM] | Kd [2] [µM] | Kd [3] [µM] | Kd (LC3C (purified, for ITC)) [µM] | Kd (LC3B (purified, for ITC)) [µM] | Kd (LIR[Sp] peptide) [µM] | Binder |
| --- | --- | --- | --- | --- | --- | --- |
| > 132 | > 132 | > 132 | 26.9 | > 132 |  | DGTLIIDLPDSY [LIR(TP[T]) peptide] |
|  |  |  |  |  | 0.629 | B1 |
